Laboratory results taken from publication PMC6445578.

Experiments:
[1] = target: hERG F860A core channel (hERG ΔPAS F860A-citrine, S620T) (human) (UniProt Q12809); assay: FRET or BRET
[2] = target: hERG ΔPAS-citrine channel (hERG core channel), S620T (human) (UniProt Q12809); assay: FRET or BRET

## hERG PAS domain fused to cyan fluorescent protein (hERG PAS-CFP) (from UniProt Q12809 1-135) (domain or fragment)
[1]
  Ratio A – Ratio A0 (proportional to FRET efficiency): 0.09
[2]
  Ratio A − Ratio A0 (proportional to FRET efficiency): 0.2
